In patent US6753157B2, “Quantitation of individual protein kinase activity” (Promega Corporation, priority 1994, dated 2004):
Ends that are not written are not given here. * marks the point of attachment. biotin C6 = biotin C6 moiety, O=C(CCCC[C@@H]1SC[C@@H]2NC(=O)N[C@@H]21)NCCCCCC(=O)*

Key:
[1] = tested on: Ca2+ and phospholipid dependent protein kinase (PKC); assay: Protein kinase activity of Ca2+ and phospholipid dependent protein kinase with biotinylated neurogranin(28-43), streptavidin-linked disk, 32P; type: biochemical
Method: The protein kinase activity of Ca^2+ and phospholipid dependent protein kinase activity (PKC) was determined in a similar manner to that of PKA described above, except that the biotinylated peptide substrate was a derivative of neurogranin; namely, biotinylated neurogranin(28-43) Chen, S-J, et al., 1993.
The peptide was modified by the addition of biotin containing moiety: *-Ala-Ala-Lys-Ile-Gln-Ala-Ser-Phe-Arg-Gly-His-Met-Ala-Arg-Lys-Lys (Promega Peptide B, SEQ. ID. 2, Mol.Wt. is 2139.6), and was used at a concentration of 100 μM. The enzyme (#V5261, Promega Corporation) was diluted 5× in 100 μg/ml of BSA.
The kinase activity of the […] was determined in a reaction volume of 50 μL consisting of 40 mM Tris. HCl, pH 7.4, 10 mM MgCl2, BSA at 100 μg/ml, and 100 μM of τ-^32P-ATP (sp.act. of 100 cpm/pmol). The activity was determined in the presence and absence of 100 μg/ml of phosphatidylserine, 10 μg/ml of diacylglycerol and 0.4 mM calcium chloride. Reaction was started with the addition of 5 μL of the enzyme and incubated at 25° C. After specified periods of time, reactions were terminated by the addition of 10 μL of terminating solution (see above). Twenty-five μL aliquots were aliquoted on disks and the disks were processed as described above for PKA.

[2] = molecular target: T1, cAMP-dependent protein kinase (PKA) (Bos taurus, UniProt P00517); assay: Kinase activity of cAMP-dependent protein kinase with biotinylated peptide substrate, streptavidin-linked disk, 32P; type: biochemical; conditions: PKA 2 Kemptide units per reaction, 100 μM ATP, 37° C., FIG. 3
T1 construct: V5161 (general description)
Method: The kinase activity of cAMP-dependent protein kinase (PKA) was carried out in duplicates at each of the various peptide substrate concentrations, in a reaction volume (50 μL) containing 40 mM Tris HCl, pH 7.4, 20 mM MgCl2, 100 μM τ-^32P-ATP (sp.act.of 100-200 cpm/pmol), 100 μg/ml of bovine serum albumin (BSA), and the appropriate biotinylated peptide substrate: *-Leu-Arg-Arg-Ala-Ser-Leu-Gly (Promega Peptide A, SEQ. ID. 1, M.Wt of 998.4).
The reaction was started by addition of the appropriate amount of enzyme (Promega #V5221) to give 2 Kemptide units and incubated for 0, 5, and 10 minutes at 37° C. (one Kemptide unit is defined as the amount of enzyme required to catalyze the incorporation of 1 pmol of phosphate into Kemptide substrate in 1 minute). At specified periods of time at the appropriate temperature, the reaction was terminated with the addition of 10 μL of terminating solution as described above.
Twenty-five μL aliquots were withdrawn and spotted in a 12.5 mm (i.d.) streptavidin-linked disk (0.5 mg of streptavidin/disk) and placed in 2M NaCl-containing beaker. After one minute of gently swirling the beaker at room temperature, fresh NaCl was added. This washing procedure was repeated 5 more times at one minute each. […]
Enzyme activity was calculated by determining the radioactivity via liquid scintillation spectrometry. […]

[3] = tested on: T2, biotinylated neurogranin(28-43) (Promega Peptide B, *-Ala-Ala-Lys-Ile-Gln-Ala-Ser-Phe-Arg-Gly-His-Met-Ala-Arg-Lys-Lys)
T2 sequence: AAKIQASFRGHMARKK

[4] = tested on: T3, biotinylated Promega Peptide A (*-Leu-Arg-Arg-Ala-Ser-Leu-Gly)
T3 sequence: LRRASLG

With “*-Ala-Ala-Lys-Ile-Gln-Ala-Ser-Phe-Arg-Gly-His-Met-Ala-Arg-Lys-Lys ({biotin C6}-AAKIQASFRGHMARKK) [Promega Peptide B, N-terminal Biotin C6 neurogranin-derived peptide substrate for PKC]” the “substrate concentration at which enzyme activity reached a maximum” value ([1]; PKC, 25° C., FIG. 7) was “around 100 μM” and the “PKC activity relative to activity assayed with the phosphocellulose paper method” value ([1]; biotinylated substrate/streptavidin matrix versus unmodified peptide/phosphocellulose paper) was 6-7 fold.
“*-Leu-Arg-Arg-Ala-Ser-Leu-Gly ({biotin C6}-LRRASLG) [Promega Peptide A, N-terminal Biotin C6 peptide substrate for PKA]” showed a Km [2] of 33 µM and a Vmax value [2] of 1.45 pmol/min.
For “Ca2+ and phospholipid dependent protein kinase (PKC) (#V5261, Promega Corporation)”, the “substrate concentration at which kinase activity reached a maximum” value [3] was “the activity of the enzyme reached a maximum around 100 µM of modified substrate”.
“cAMP-dependent protein kinase (PKA), purified enzyme (Promega #V5221)” was tested, and the “Km (kinase activity, 32P incorporation into biotinylated peptide captured on streptavidin disks)” value [4] was “a Km Value for the substrate of 33 µM”.
